Laboratory results from article PMC8693861.

How the values were obtained:
[1] = molecular target: full-length N-terminal signaling domain of human Sonic hedgehog (ShhN), residues 24-193, without lipid attachments (UniProt Q15465); test: BLI; conditions: 4 μM SHH (per earlier reader's note; not printed in panel or legend); parent: est. 0.077; read off a plot
[2] = molecular target: biotinylated human HHAT-Avi-1D4 (pHR-CMV-TetO2-HHAT-wildtype-Avi-1D4) (human) (UniProt Q5VTY9); test: BLI; SHH on immobilised biotinylated HHAT-Avi-1D4, 22°C, same buffer without nhPalm-CoA
[3] = molecular target: biotinylated human HHAT-Avi-1D4 (pHR-CMV-TetO2-HHAT-wildtype-Avi-1D4) (human) (UniProt Q5VTY9); test: BLI; biotinylated HHAT-Avi-1D4 on streptavidin biosensors, 22°C, SHH in 10 mM HEPES pH 7.5, 150 mM NaCl, 0.06% DDM 40:1 CHS, 1 mM DTT, 5 mM CaCl2 with 5-10 mM nhPalm-CoA; multi-cycle kinetics, 300 s association and dissociation, 1:1.5 dilution series from 5 μM; one to two state binding model

response [1] [nm] | fold reduction of binding without nhPalm-CoA against with nhPalm-CoA [2] [fold] | percent reduction of binding without Palm-CoA [2] [%] | Kd [3] [µM] | Substance
-0.012 | – | – | – | biotinylated human HHAT-Avi-1D4 (pHR-CMV-TetO2-HHAT-wildtype-Avi-1D4) (from UniProt Q5VTY9) E59R
0.011 | – | – | – | biotinylated human HHAT-Avi-1D4 (pHR-CMV-TetO2-HHAT-wildtype-Avi-1D4) (from UniProt Q5VTY9) Y382A; Y384A
– | 3 | 50 | 3.7 | full-length N-terminal signaling domain of human Sonic hedgehog (ShhN), residues 24-193, without lipid attachments (from UniProt Q15465 24-193) (domain or fragment)
